Measured values taken from publication PMC8048298.

Key:
[1] = target: GST-SMARCA4-F4 (aa1009-1314) (human) (UniProt P51532); experiment: MST; SMARCA4 protein labelled with NT-647-NHS at 100 nM; peptides 10 nM to 500 μM; PBS pH 7.4, 0.05% Tween-20; 5 min incubation; Monolith NT.115; one-site binding (Kd formula)
[2] = target: Flag-tagged SMARCA4 purified from HCT116 cells (human) (UniProt P51532); experiment: as above
[3] = target: GST-SMARCA4-F4 (aa1009-1314) (human) (UniProt P51532); experiment: ITC; peptide 1 mM in the syringe, protein 100 μM in the cell; 19 injections of 2 μl; PBS; 25 °C; MicroCal ITC-200

Kd [1]: 5.36 µM
Kd [2]: 6.27 µM
Kd [3]: 2.41 µM
Substance: histone H4 N-terminal 20 amino acid peptide, Arg3 asymmetrically dimethylated (H4R3me2a), C-terminal biotin (from UniProt P62805 2-21)
